Reference: the RNAGym collection of RNA variant scans (doi:10.1073/pnas.2313332121)

B1: TPR t1 (parent)
chain: GACCAAUCUGCCCUCAGAGCUCGAGAACAUCUUCGGAUGCAGAGGAGGCAGGCUUCGGUGGCGCGAUAGCGCCAACGUCCUCAACCUCCAAUGCAUCCCACCACAUGAUGAUGCCUGAAGAGCCUUGGUUUUUUG

Variants of: B1
Experiment: polymerase ribozyme fitness, log enrichment relative to wild type (log ratio); higher = more active; in vitro selection for triplet polymerase activity
Method in brief: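 Frozen incubation at −7 °C formed the core of a single, triplicate in vitro selection round applied to PCR-built, transcribed mutant libraries of each subunit of a heterodimeric triplet polymerase ribozyme. Extended constructs were gel-excised, captured with streptavidin beads and amplified by RT-PCR, and input and output libraries were Illumina-sequenced with a filter of ≥10 input reads and ≥1 read per output. Fitness is the logarithm of genotype enrichment relative to wild-type enrichment, with inverse-variance-weighted replicate averaging, and the logarithm is base 2.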

Variant | polymerase ribozyme fitness (log ratio)
G58A G61A G93A G113C U125C G135A | -2.01
C56U C88A G127C | -1.72
G58C A90U U109A C114U | -5.55
U54G G57C | -1.44
C56U A111C | -0.414
C56A C70G | -3.6
C56A C70U | -0.609
C56U G110C | -3.43
C56A G120C | 0.484
U55G G58C C79A | -3.4
U54A C88G C89U C115A | -1.42
C56U G65A A83U | -6.42
C56G C88A C115U A119G | 1.4
U55G C62G C123U | -0.0735
C56A C62A C79A | -6.19
G58A U92A | -2.93
C56G A68G | -3.1
U55A C79U C97U C115U G127C | -3.52
C56A U59C U87C U112A | 0.408
U54C U106A C124U | 2.23
U55A A111U | -2.8
G58A C73A A84G A103G C124G | -7.11
C56U G93A | -0.279
C56U G93C | -0.768

Variant | polymerase ribozyme fitness (log ratio)
C56U G57C G69C | -0.611
C56A G128U | -2.53
C56A G63A G93A A100C C124U | -4.2
C56U C62U C101U G122A | -2.35
C56G C70A A83G U96C G120A | -4.37
G58A G77U U81A U87C C102A | -4.48
C56A C99U | -2.82
U55G G61U C114U | -1.66
G57C U59A | -0.128
C56A U132A | 0.197
C56A G69A | -3.3
C56U G69A | -3.53
C56U G69C | -4.69
C56G A121U | 1.73
C56U C89A U92C G117U | -5.23
C56G C123U | 0.748
C56G C123A | 0.0294
G57U G110A G127A | -2.29
U54C C56U C82A U96A | -1.95
G57A G63U | -2.43
C56U G61A U112G A121U | -6.37
C56G C86U U112A A118G A119G | 1.32
U54C A84G C88A C98U | -1.69
C56U G69U C82U A84U | -3

Variant | polymerase ribozyme fitness (log ratio)
C56G A111G | 0.245
C56G A111C | -0.855
U54G G71U A74U G113C A121U | -7.2
U54C C115U G127C | -1.97
C56U G113A | -0.858
C56G U112G | 0.023
G58A C88U C94U G127C G135U | -3.94
G57A G69A C76G | -3.53
C56U A83U | 0.108
G57U A105G G113A | -4.1
C56A C64G | -5.92
C56A C104G A118G C124G | -5.79
C56A C123A | 0.85
C56U G57C C70A U92A | -6.45
C56A G63C C102A | -4.29
G57U G60C | -3.3
C56U U92C U106A | -0.561
U55A U87A G122A | -0.825
C56U U116G | -2.23
C56U U116A | -2.51
C56U U125A | -0.748
U55C G58A G122A | -0.971
C56A C70G C124A G127A | -2.78
C56A A100G C102U U112C G127C | -2.2

Variant | polymerase ribozyme fitness (log ratio)
G57C C85G C114U A119C | -6.42
C56U U81G C97U | -1.35
U54C U78G G117U | -3.85
C56G C64A U106C C114U | -6.98
C56G C73U | -0.89
G57U C88U A108G | -3.61
C56A G93A | -0.661
C56A G93C | -1.88
U54A C115U U131C G135C | -1.35
U54C C72U C89U A111C | -0.0742
C56U C72A G77A C97A | -3.63
G57C C89A G117U A118G U130C G135U | -2.49
U55G A66U | -0.936
U55C C56A A90G C94G G110C U116A A121G | -6.03
C56A U87G G113U | -3.92
C56U C70U U78G U125G | -1.77
U55G U132A | -0.283
C56U U109C | -2.15
U55A C85U | -1.1
G58A U81C C85G | -2.26
C56U C76G | -2.08
G57A C70A | -3.43
G57A C73U U78A C99U G128C | -6.66
G58C A83U C85A U112G U129G | -0.79

Variant | polymerase ribozyme fitness (log ratio)
G58A G135U | -1.49
G58C A111C U112C | -0.0453
U54A G69U G128C U130A U132A | -2.67
U54A G71U U126G | -2.06
C56U A83C A121U G127U U133G | 1.28
U54A G57C A90G C114U U132A | -2.18
G57U G93A | 0.0639
C56A U96A | -1.63
C56A U112G | -0.994
U54C C115A G122A C123A U131A | -1.4
U54G G61A C80A G120U | -5.8
C56G A68G C73U A95G | -3.3
C56U G128U | -1.65
C56G G71C | -3.19
C56G G71U | -3.27
U54C U87A A95U U130A | -2.56
C56A C76A G120U | -1.15
C56U A105C C123U | -1.18
C56G G63C C114G | -5.3
G58A U78G | 0.00664
C56G G135U | -1.35
C56G C72U C124U | -0.654
U54A C94A | -1.16
G58A G69A | -2.24

Variant | polymerase ribozyme fitness (log ratio)
C56U G69C C89U C123U | -7.26
G58C A91U | -2.24
U55A G63C C72U G77C C104A | -5.29
G57U G63C | -1.73
U54C C86G U112G G120C | -1.16
C56G U87A C115U | -1.94
C56U G117U | -1.63
C56A G61C C62U C72G C89U | -0.49
U55C U130G | -1.43
C56G C72G U87G C98U | -1.99
C56U U59A C101U G122A | -1.81
U55A C73U C86G C99U | -4.02
C56G C101U G120A | -0.227
C56A C101G | -1.76
C56G A66C | -1.08
C56A C79A | -1.77
G57U C94G | -1.04
U55G G61U C123A | 1.22
C56G A95G | -1.22
C56A C88U C124A U133C | 2.43
C56A G71U G122A | -2.05
C56U C76A G93A G120C | -4.53
C56G C101U | -0.0823
C56A C72U G93U | -1.63

Variant | polymerase ribozyme fitness (log ratio)
U54G G107U | -5.37
C56U C72U U78A C80A | -4.1
C56U C97U A108G U116C U133G | -3.98
U54G G63A G69U U78G C102A U106G G120C | -6.62
C56G C72U U130A | -1.31
G58A C123G | 2.11
U55G C62A C88G | -2.24
C56U A84G A91U C98A C99A G120U | -7.08
C56A U87A U106A | -0.176
C56A G58C C62U C101A C104U | -1.18
C56U C94A A105G | -3.08
C56U C72G U129A | -1.89
C56G C62U U106A G110U | -0.758
G57U A75G A83C G117A | -2
C56A C88U C101U U106G C123A | -1.58
C56A C80A U116G | -4.93
U54A U133G | -0.274
C56U U78G G93U G113A | -2.45
C56A G113A | -0.455
C56A C104U U106A U109A | -5.35
C56A C72U G110A G122U | -2.87
C56G U132C | -0.811
U54A C89U U96C G127A | -1.97
